Measured values: US20120269734

B1: active human recombinant MMP-2 (CalBiochem) (protein)
chain: YNFFPRKPKWDKNQITYRIIGYTPDLDPETVDDAFARAFQVWSDVTPLRFSRIHDGEADIMINFGRWEHGDGYPFDGKDGLLAHAFAPGTGVGGDSHFDDDELWTLGEGQVVRVKYGNADGEYCKFPFLFNGKEYNSCTDTGRSDGFLWCSTTYNFEKDGKYGFCPHEALFTMGGNAEGQPCKFPFRFQGTSYDSCTTEGRTDGYRWCGTTEDYDRDKKYGFCPETAMSTVGGNSEGAPCVFPFTFLGNKYESCTSAGRSDGKMWCATTANYDDDRKWGFCPDQGYSLFLVAAHEFGHAMGLEHSQDPGALMAPIYTYTKNFRLSQDDIKGIQELYGASPDIDLGTGPTPTLGPVTPEICKQDIVFDGIAQIRGEIFFFKDRFIWRTVTPRDKPMGPLLVATFWPELPEKIDAVYEAPQEEKAVFFAGNEYWIYSASTLERGYPKPLTSLGLPPDVQRVDAAFNWSKNKKTYIFAGDKFWRYNEVKKKMDPGFPKLIADAWNAIPDNLDAVVDLQGGGHSYFFKGAYYLKLENQSLKSVKFGSIKSDWLGC

What was measured:
[1] = system: kemptide (substrate of PKA), conjugated to the bioluminescent protein Luc8 as in the method of FIG. 21b
[2] = biological target: T1, Luc8 fusion protein (Luc8-PLGVR-6xHis)
T1 chain: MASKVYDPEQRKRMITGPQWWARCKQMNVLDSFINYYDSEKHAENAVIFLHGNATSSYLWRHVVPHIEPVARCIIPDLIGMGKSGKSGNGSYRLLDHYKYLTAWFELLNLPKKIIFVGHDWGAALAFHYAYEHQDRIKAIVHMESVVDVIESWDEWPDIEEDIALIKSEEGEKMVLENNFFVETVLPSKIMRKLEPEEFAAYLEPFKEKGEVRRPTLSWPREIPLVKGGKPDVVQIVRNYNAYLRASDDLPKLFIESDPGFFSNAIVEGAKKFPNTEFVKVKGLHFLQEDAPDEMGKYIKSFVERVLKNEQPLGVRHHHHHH

Molecule	BRET ratio after the PKA phosphorylation (method of FIG. 21b) [1]	BRET ratio before the PKA phosphorylation (method of FIG. 21b) [1]	BRET ratio after 24 hours at 22° C., MMP-2 at 20 ng/mL (~300 pM) [2]	BRET ratio at the start, MMP-2 at 20 ng/mL (~300 pM) [2]	BRET ratio before the MMP-2 cleavage (t=0); fusion protein 16 µM, MMP-2 10 µg/mL, 22° C. [2]	BRET ratio within 30 minutes of incubation with MMP-2 (10 µg/mL) [2]	BRET ratio within 2 hours of incubation with MMP-2 (10 µg/mL) [2]	NuPAGE assay [2]	decrease of the BRET ratio after 24 hours at 22° C. with MMP-2 at 20 ng/mL (~300 pM) [2]	gel electrophoresis (4-12% Bis-Tris denaturing gel, Coomassie) [2]
Protein Kinase A (PKA)	The BRET ratio was increased from 0.15 to 0.47 after the PKA phosphorylation of the substrate kemptide	The BRET ratio was increased from 0.15 to 0.47 after the PKA phosphorylation of the substrate kemptide	–	–	–	–	–	–	–	–
B1	–	–	the BRET ratio decreased by ~20% from 1.6 to 1.3 for a concentration of MMP-2 of 20 ng/mL (~300 pM)	the BRET ratio decreased by ~20% from 1.6 to 1.3 for a concentration of MMP-2 of 20 ng/mL (~300 pM)	the BRET ratio was 1.64	Within 30 minutes, the BRET ratio dropped to 0.62	the reaction was nearly complete within 2 hours with a BRET ratio of 0.21	NuPAGE assay detected a protein product with a smaller size, confirming the hydrolysis by MMP-2	the BRET ratio decreased by ~20% from 1.6 to 1.3 for a concentration of MMP-2 of 20 ng/mL (~300 pM)	Gel electrophoresis analysis confirmed the cleavage of the fusion protein by MMP-2
